Experiment [1] has as its target carcinoembryonic antigen (CEA) (UniProt P06731). Briefly: off-rate analysis on the yeast surface at 37 C.
For experiment [2], the target named is T1, carcinoembryonic antigen (CEA) (UniProt P06731 35-685, limits assumed, biotinylated (labelled form); unlabelled CEA (Calbiochem) used as competitor in the off-rate assays).
T1 construct: also called biotinylated-CEA; bio-CEA
T1 sequence (looked up): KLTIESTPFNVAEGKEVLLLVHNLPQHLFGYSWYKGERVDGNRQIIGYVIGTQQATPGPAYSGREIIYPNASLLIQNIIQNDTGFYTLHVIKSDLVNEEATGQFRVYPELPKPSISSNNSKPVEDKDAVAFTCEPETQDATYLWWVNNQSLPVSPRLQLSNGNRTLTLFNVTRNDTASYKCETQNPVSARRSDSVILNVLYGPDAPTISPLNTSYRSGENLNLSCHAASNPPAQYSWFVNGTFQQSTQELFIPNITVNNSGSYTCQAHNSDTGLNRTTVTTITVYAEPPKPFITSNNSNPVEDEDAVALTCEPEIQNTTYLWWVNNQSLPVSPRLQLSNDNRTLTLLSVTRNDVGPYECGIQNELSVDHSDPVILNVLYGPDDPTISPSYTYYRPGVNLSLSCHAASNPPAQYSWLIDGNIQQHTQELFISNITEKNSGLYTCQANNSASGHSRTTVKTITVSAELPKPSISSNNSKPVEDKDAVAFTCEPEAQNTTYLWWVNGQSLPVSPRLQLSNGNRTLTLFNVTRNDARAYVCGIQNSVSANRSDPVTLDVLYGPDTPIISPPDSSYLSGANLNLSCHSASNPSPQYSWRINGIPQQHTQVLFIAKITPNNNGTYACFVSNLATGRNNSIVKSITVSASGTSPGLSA
Description: yeast surface display, equilibrium titration with biotinylated CEA, flow cytometry, 37 C. As to the method: Equilibrium binding constants KD for CEA at 37° C. A) Plot of CEA binding (measured fluorescence) versus CEA concentration. B) CEA binding (normalized for different display levels) versus CEA concentration. […] C) Soluble production of MFE-23 (1) and hMFE (2) at 37° C. for 48 hours. Additional lanes are the scFvs produced at 37° C. and 20° C. for varying amounts of time.

For experiment [3], the target named is T1, carcinoembryonic antigen (CEA). Description: off-rate analysis on the yeast surface at 37 C.
Experiment [4] has the same target. Description: yeast surface display, off-rate analysis.
Experiment [5] has the same target. Briefly: yeast surface display, dissociation of biotinylated CEA in excess unlabelled CEA, flow cytometry. On the procedure: Binding analysis of clones isolated from aggressive hMFE Library sort. A) Equilibrium Titration (Example 3). hMFE (kD±8.5±0.5 nM) (●), m9B (kD=0.8±0.1 nM) (▪), m10B (kD=0.08±0.01 nM) (♦)B). Off-rate. Dissociation rates were measured by first labeling yeast displaying the scFv of interest with biotinylated CEA. Then, the labeled cells were washed and incubated with an excess of nonbiotinylated CEA. Dissociation of labeled CEA from the cells was followed at the single cell level by flow cytometry and streptavidin-PE labeling, as described in Example 3. hMFE (koff=1.2±0.1×10⁻³ s⁻¹) (●), m9B (koff=7.5±0.4×10⁻⁵ s⁻¹) (▪), m10B (koff=6.0±0.4×10⁻⁶ s⁻¹) (♦).

For experiment [6] the target is unchanged. Briefly: yeast surface display, equilibrium titration with biotinylated CEA.
Experiment [7] shares this target. Description: yeast surface display, equilibrium titration with biotinylated CEA, flow cytometry.
For experiment [8] the target is unchanged. Briefly: yeast surface display, off-rate analysis with biotinylated CEA and excess unlabelled CEA, flow cytometry.
For experiment [9] the target is unchanged. Briefly: yeast surface display, dissociation of biotinylated CEA in 100-fold excess unlabelled CEA at 37 C, flow cytometry.

Results on 12 molecules are retold here after patent US20050147614A1 (CANCER RESEARCH TECHNOLOGY, published 2005).

“And” between values parts separate entries of the source, which are not always exact repeats. Identical values can stand only once.

On to sm3E+T98A (scFv), for which the koff in experiment [1] was found to be 1.2e-06 s⁻¹.

B1: MFE-23 scFv (scFv)
scFv: QVKLQQSGAELVRSGTSVKLSCTASGFNIKDSYMHWLRQGPEQGLEWIGWIDPENGDTEYAPKFQGKATFTTDTSSNTAYLQLSSLTSEDTAVYYCNEGTPTGPYYFDYWGQGTTVTVSSGGGGSGGGGSGGGGSENVLTQSPAIMSASPGEKVTITCSASSSVSYMHWFQQKPGTSPKLWIYSTSNLASGVPARFSGSGSGTSYSLTISRMEAEDAATYYCQQRSSYPLTFGAGTKLELKRAA
notes: Tested on the yeast surface as an Aga2p fusion in pCTCON, with an HA tag N-terminal and a c-myc tag C-terminal of the scFv
Consider B1, for which the Kd in experiment [2] was 8.3 nM and 7.5 nM.

B2: humanized MFE-23 (hMFE) scFv (scFv)
scFv: PYDVPDYALQASGGGGSGGGGSGGGGSASQVKLEQSGAEVVKPGASVKLSCKASGFNIKDSYMHWLRQGPGQRLEWIGWIDPENGDTEYAPKFQGKATFTTDTSANTAYLGLSSLRPEDTAVYYCNEGTPTGPYYFDYWGQGTLVTVSSGGGGSGGGGSGGGGSENVLTQSPSSMSASVGDRVNIACSASSSVSYMHWFQQKPGKSPKLWIYSTSNLASGVPSRFSGSGSGTDYSLTISSMQPEDAATYYCQQRSSYPLTFGGGTKLEIKAAAGSEQKLISEEDL
notes: also called hMFE-23; resurfaced scFv
For B2, the off-rate (koff) in [3] came out at 0.0009 s⁻¹; in [5], 0.0012 s⁻¹. Moreover, the Kd in experiment [2] was 8.3 nM and 8.5 nM. Moreover, the “half-life for binding to CEA” value in [4] was 0.167 h.

B3: m10B (scFv)
chain: PYDVPDYALQASGGGGSGGGGSGGGGSASQVKLEQSGAEVVKPGASVKLSCKASGFNIKDSYMHWLRQGPGQRLEWIGWIDPENGDTEYAPKFQGKATFTTDTSANTAYLGLSSLRPEDTAVYYCNEGTPTGPYYFDYWGQGTLVTVSSGGGGSGGGGSGGGGSENVLTQSPSSMSASVGDRVNIACSASSSVSYMHWFQQKPGKSPKLWIYLTSNLASGVPSRFSGSGSGTDYSLTISSMQPEDAATYYCQQRSSYPLTFGGGTKLEIKAAAGSEQKLISEEDL
Consider B3, for which, in [6], the “fold improvement in the affinity over hMFE” value was 100 fold. Also, in experiment [4], the “fold improvement in the off-rate over hMFE” value was 200 fold. The molecule also yielded a koff in experiment [5] of 6e-06 s⁻¹. Also, in experiment [7], the Kd came to 0.08 nM.

B4: m9B (scFv)
chain: PYDVPDYALQASGGGGSGGGGSGGGGSASQVKLEQSGAEVVKPGASVKLSCKASGFNIKDSYMHWLRQGPGQRLEWIGWIDPENGDTEYAPKFQGKATFTTDTSANTAYLGLSSLRPEDTAVYYCNEGTPTGPYYFDYWGQGTLVTVSSGGGGSGGGGSGGGGSENVLTQSPSSMSASVGDRVNIACSASSSVSYMHWLQQKPGKSPKLWIYSTSNLASGVPSRFSGSGSGTDYSLTISSMQPEDAATYYCQQRSSYPLTFGGGTKLEIKAAAGSEQKLISEEDL
As to B4, the “fold improvement in the dissociation constant over hMFE” value in [6] came out at 10 fold. Besides, in [4], the “fold improvement in the off-rate over hMFE” value was determined as 16 fold. Moreover, the off-rate (koff) in experiment [5] is 7.5e-05 s⁻¹. In addition, the equilibrium dissociation constant (Kd) in [7] was determined as 0.8 nM.

B5: sm10B (scFv)
chain: PYDVPDYALQASGGGGSGGGGSGGGGSASQVKLEQSGAEVVKPGASVKLSCKASGFNIKDSYMHWLRQGPGQRLEWIGWIDPENGDTEYAPKFQGKATFTTDTSANTAYLGLSSLRPEDTAVYYCNEGTPTGPYYFDYWGQGTLVTVSSGGGGSGGGGSGGGGSENVLTQSPSSMSASVGDRVTIACSASSSVPYMHWFQQKPGKSPKLLIYLTSNLASGVPSRFSGSGSGTDYSLTISSVQPEDAATYYCQQRSSYPLTFGGGTKLEIKAAAGSEQKLISEEDL
Take B5: the dissociation rate constant (koff) in experiment [3] was determined as 8.2e-06 s⁻¹; in experiment [8], 8.3e-06 s⁻¹.

B6: sm10B+T98A (scFv)
chain: PYDVPDYALQASGGGGSGGGGSGGGGSASQVKLEQSGAEVVKPGASVKLSCKASGFNIKDSYMHWLRQGPGQRLEWIGWIDPENGDTEYAPKFQGKATFTTDTSANTAYLGLSSLRPEDTAVYYCNEGTPAGPYYFDYWGQGTLVTVSSGGGGSGGGGSGGGGSENVLTQSPSSMSASVGDRVTIACSASSSVPYMHWFQQKPGKSPKLLIYLTSNLASGVPSRFSGSGSGTDYSLTISSVQPEDAATYYCQQRSSYPLTFGGGTKLEIKAAAGSEQKLISEEDL
Consider B6, for which, in experiment [3], the off-rate constant (koff) was 6.8e-06 s⁻¹.

B7: hMFE+T98A (scFv)
chain: PYDVPDYALQASGGGGSGGGGSGGGGSASQVKLEQSGAEVVKPGASVKLSCKASGFNIKDSYMHWLRQGPGQRLEWIGWIDPENGDTEYAPKFQGKATFTTDTSANTAYLGLSSLRPEDTAVYYCNEGTPAGPYYFDYWGQGTLVTVSSGGGGSGGGGSGGGGSENVLTQSPSSMSASVGDRVNIACSASSSVSYMHWFQQKPGKSPKLWIYSTSNLASGVPSRFSGSGSGTDYSLTISSMQPEDAATYYCQQRSSYPLTFGGGTKLEIKAAAGSEQKLISEEDL
For B7, in experiment [3], the “fold improvement in off-rate over hMFE” value is 1.5 fold and the koff was found to be 0.0006 s⁻¹.

B8: sm9B (scFv)
chain: PYDVPDYALQASGGGGSGGGGSGGGGSASQVKLEQSGAEVVKPGASVKLSCKASGFNIKDSYMHWLRQGPGQRLEWIGWIDPENGDTEYAPKFQGKATFTTDTSANTAYLGLSSLRPEDTAVYYCNEGTPTGPYYFDYWGQGTLVTVSSGGGGSGGGGSGGGGSENVLTQSPSSMSASVGDRVTIACSASSSVPYMHWLQQKPGKSPKLLIYSTSNLASGVPSRFSGSGSGTDYSLTISSVQPEDAATYYCQQRSSYPLTFGGGTKLEIKAAAGSEQKLISEEDL
Consider B8, for which, in [8], the dissociation rate constant (koff) was found to be 0.00011 s⁻¹.

B9: m8E (scFv)
chain: PYDVPDYALQASGGGGSGGGGSGGGGSASQVKLEQSGAEVVKPGASVKLSCKASGFNIKDSYMHWLRQGPGQRLEWIGWIDPQNGDTEYAPKFQGKATFTTDTSANTAYLGLSSLRPEDTAVYYCNEGTPAGPYYFDYWGQGTLVTVSSGGGGSGGGGSGGGGSENVLTQSPSSMSASVGDRVNIACSASSSVSYMHWFQQKPGKSPKLWIYLTSNLAPGVPSRFSGSGSGTDYSLTISSMQPEDAATYYCQQRSSYPLTFGGGTKLEIKAAAGSEQKLISEEDL
For B9, the koff in experiment [9] was 2.6e-06 s⁻¹.

B10: m7E (scFv)
chain: PYDVPDYALQASGGGGSGGGGSGGGGSASQVKLEQSGAEVVKPGASVKLSCKASGFNIKDSYMHWLRQGPGQRLEWIGWIDPENGDTEYAPKFQGKATFTTDTSANTAYLGLSSLRPEDTAVYYCNEGTPTGPYYFDYWGQGTLVTVSSGGGGSGGGGSGGGGSENVLTQSPSSMSASVGDRVNIACNASSSVSYMHWLQQKPGKSPKLWIYLTSNLAPGVPSRFSGSGSGTDYSLTISSMQPEDAATYYCQQRSSYPLTFGGGTKLEIKAAAGSEQKLISEEDL
For B10, the off-rate (koff) in experiment [9] stood at 1.8e-06 s⁻¹.

B11: m3E (scFv)
chain: PYDVPDYALQASGGGGSGGGGSGGGGSASQVKLEQSGAEVVKPGASVKLSCKASGFNIKDSYMHWLRQGPGQRLEWIGWIDPENGDTEYAPKFQGKATFTTDTSANTAYLGLSSLRPEDTAVYYCNEGTPTGPYYFDYWGQGTLVTVSSGGGGSGGGGSGGGGSENVLTQSPSSMSASVGDRVNIACSASSSVSYMHWLQQKPGKSPKLWIYLTSNLASGVPSRFSGSGSGTDYSLTISSMQPEDAATYYCQQRSSYPLTFGGGTKLEIKAAAGSEQKLISEEDL
As for B11, in experiment [9], the off-rate (koff) came out at 1.2e-06 s⁻¹. Also, the “half-life for binding to CEA” value in experiment [4] was roughly 168 h.
